Experimental findings from patent publication US20140065645 are described below.

This series deals with T1, FITC-labeled polypeptide linker, coupled to a bead.
T1 chain: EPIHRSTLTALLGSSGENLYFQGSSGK

B1: Tobacco etch virus (TEV) protease (protein)
chain: GESLFKGPRDYNPISSTICHLTNESDGHTTSLYGIGFGPFIITNKHLFRRNNGTLLVQSLHGVFKVKNTTTLQQHLIDGRDMIIIRMPKDFPPFPQKLKFREPQREERICLVTTNFQTKSMSSMVSDTSCTFPSSDGIFWKHWIQTKDGQCGSPLVSTRDGFIVGIHSASNFTNTNNYFTSVPKNFMELLTNQEAQQWVSGWRLNADSVLWGGHKVFMSKPEEPFQPVKEATQLMNELVYSQ
Take B1: the Intensity of Signal (FITC fluorescence of the linker-bead complex after 1 hour with TEV protease, 1:1 by mass) worked out at 10.3; the Intensity of Signal (FITC fluorescence of the linker-bead complex after 1 hour with TEV protease, 1:2 by mass) came out at 9; the Ratio of Signal/Background Signal (1:1 TEV protease) is 1.24; the Ratio of Signal/Background Signal (1:2 TEV protease) came to 1.08. For the same protein, the “cleavage of the polypeptide linker” value is reported as “Most polypeptide linkers were cleaved when the mass of the added enzyme was twice the mass of the polypeptide linker”.
